Numbering of substitutions follows the chain as printed. Like-named read-outs stand apart in the source and are kept apart here.
Columns and labels:
AE.A244 gp120 delta 11 [1] = target: T1, AE.A244 gp120 delta 11 (HIV-1); experiment: ELISA
T1 construct: also called E.A244gp120Δ11; AE.A244 Δ11 gp120

AE.A244 gp120 delta 11 [2] = target: T1, AE.A244 gp120 delta 11; experiment: ELISA; remark: listed apart in the source
AE.A244 V1V2 Tags [3] = target: AE.A244 V1V2 Tags (HIV-1); experiment: ELISA
C.1086 V1V2 Tags [4] = target: C.1086 V1V2 Tags (HIV-1); experiment: ELISA
gp70 C.1086 V1/V2 [5] = target: T2, gp70 C.1086 V1/V2 (HIV-1 V1V2 on murine leukemia virus gp70); experiment: ELISA
T2 construct: also called C.gp70 1086C V1V2; C.1086gp70V1V2
T2 chain: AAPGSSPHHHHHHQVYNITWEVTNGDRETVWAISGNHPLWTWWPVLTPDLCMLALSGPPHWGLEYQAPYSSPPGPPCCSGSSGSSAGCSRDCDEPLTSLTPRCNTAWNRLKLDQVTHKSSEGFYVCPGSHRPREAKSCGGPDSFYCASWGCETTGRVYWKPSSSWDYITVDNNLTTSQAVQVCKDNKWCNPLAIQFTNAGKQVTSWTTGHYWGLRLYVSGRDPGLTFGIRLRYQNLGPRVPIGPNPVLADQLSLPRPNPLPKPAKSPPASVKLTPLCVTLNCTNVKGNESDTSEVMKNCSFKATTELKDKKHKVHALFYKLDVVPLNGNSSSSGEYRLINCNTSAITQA

AE.A244 V1V2 Tags [6] = target: AE.A244 V1V2 Tags (HIV-1); experiment: ELISA; remark: listed apart in the source
C.1086 V1V2 Tags [7] = target: C.1086 V1V2 Tags (HIV-1); experiment: ELISA; remark: listed apart in the source
gp70 C.1086 V1/V2 [8] = target: T2, gp70 C.1086 V1/V2; experiment: ELISA
Env of AE.92TH023 virus = Env of AE.92TH023 virus (HIV-1); experiment: cell-based or functional assay
Env of AE.CM244 virus = Env of AE.CM244 virus (HIV-1); experiment: cell-based or functional assay
[9] = target: Env of 92TH023 K169Q virus (HIV-1); experiment: cell-based or functional assay
[10] = target: Env of TH023.6.I181L virus (HIV-1); experiment: cell-based or functional assay
Env of 703357.c02 virus = Env of 703357.c02 virus (HIV-1); experiment: cell-based or functional assay
[11] = target: Env of 703357.2.Q169K virus (HIV-1); experiment: cell-based or functional assay
[12] = target: Env of 703357.2.Q169KR170Q virus (HIV-1); experiment: cell-based or functional assay
[13] = target: Env of 703357.2.I181L virus (HIV-1); experiment: cell-based or functional assay
[14] = target: Env of 703357.2.Q169KI181L virus (HIV-1); experiment: cell-based or functional assay
[15] = target: Env of 703357.2.Q169KR170QI181L virus (HIV-1); experiment: cell-based or functional assay
Env of 427299.c12 virus = Env of 427299.c12 virus (HIV-1); experiment: cell-based or functional assay
[16] = target: Env of 427299.c12.Q169K virus (HIV-1); experiment: cell-based or functional assay
[17] = target: Env of 427299.c12.H81L virus (HIV-1); experiment: cell-based or functional assay
[18] = target: Env of 427299.c12.KL.Q169K/I181L virus (HIV-1); experiment: cell-based or functional assay
[19] = target: Env of CM244NW.4.K169Q virus (HIV-1); experiment: cell-based or functional assay
[20] = target: Env of CM244NW.6.I181L virus (HIV-1); experiment: cell-based or functional assay
[21] = target: T3, AE.A244 V1/V2 Tags N156QN160Q (HIV-1); experiment: ELISA; markers as in the legend printed on D00157
T3 chain: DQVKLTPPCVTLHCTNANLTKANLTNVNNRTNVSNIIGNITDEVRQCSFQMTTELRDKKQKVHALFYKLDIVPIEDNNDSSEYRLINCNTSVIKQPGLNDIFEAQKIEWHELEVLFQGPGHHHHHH

B1: 697D reverted unmutated ancestor antibody (antibody, V domains shown)
VH: QVQLVQSGAEVKKPGSSVKVSCKASGGTFSSYTISWVRQAPGQGLEWMGRIIPILGIANYAQKFQGRVTITADKSTSTAYMELSSLRSEDTAVYYCATSGVGLHFGYFDYWGQGTLVTVSS
VL: QSVLTQPPSVSGAPGQRVTISCTGSSSNIGAGYDVHWYQQLPGTAPKLLIYGNSNRPSGVPDRFSGSKSGTSASLAITGLQAEDEADYYCQSYDSSLSGYVFGTGTKVTVL
notes: also called 697D RUA
AE.A244 gp120 delta 11 [1]
  EC50: > 667 nM
AE.A244 gp120 delta 11 [2]
  EC50: > 667 nM

B2: CH59 reverted unmutated ancestor antibody (antibody, V domains shown)
VH: EVQLVESGGGLVQPGRSLRLSCAASGFTFDDYAMHWVRQAPGKGLEWVSGISWNSGSIGYADSVKGRFTISRDNAKNSLYLQMNSLRAEDTALYYCAKDSPRGELPFDYWGQGTLVTVSS
VL: SYELTQPPSVSVSPGQTARITCSGDALPKKYAYWYQQKSGQAPVLVIYEDSKRPSGIPERFSGSSSGTMATLTISGAQVEDEADYYCYSTDSSGNHRVFGGGTKLTVL
notes: also called CH59 RUA; CH59_RUA
AE.A244 V1V2 Tags [3]
  EC50: 0.13 nM
AE.A244 gp120 delta 11 [1]
  EC50: 15.5 nM
C.1086 V1V2 Tags [4]
  EC50: 50.1 nM
gp70 C.1086 V1/V2 [5]
  EC50: 11.3 nM
AE.A244 V1V2 Tags [6]
  EC50: 0.13 nM
AE.A244 gp120 delta 11 [2]
  EC50: 15.5 nM
C.1086 V1V2 Tags [7]
  EC50: 50.1 nM
gp70 C.1086 V1/V2 [8]
  EC50: 11.3 nM
Env of AE.92TH023 virus
  ID50 assayed in TZM-bl cells, TH023.6: > 50 µg/mL
Env of AE.CM244 virus
  ID50 assayed in TZM-bl cells, CM244.ec1: > 50 µg/mL
[9]
  ID50 assayed in TZM-bl cells, TH023.6.K169Q: > 50 µg/mL
[10]
  ID50 assayed in TZM-bl cells, TH023.6.I181L: > 50 µg/mL
Env of 703357.c02 virus
  ID50 assayed in TZM-bl cells, 703357.c02: > 50 µg/mL
[11]
  ID50 assayed in TZM-bl cells, 703357.2.Q169K: > 50 µg/mL
[12]
  ID50 assayed in TZM-bl cells, 703357.2.Q169KR170Q: > 50 µg/mL
[13]
  ID50 assayed in TZM-bl cells, 703357.2.I181L: > 50 µg/mL
[14]
  ID50 assayed in TZM-bl cells, 703357.2.Q169KI181L: > 50 µg/mL
[15]
  ID50 assayed in TZM-bl cells, 703357.2.Q169KR170QI181L: > 50 µg/mL
Env of 427299.c12 virus
  ID50 assayed in TZM-bl cells, 427299.c12: > 50 µg/mL
[16]
  ID50 assayed in TZM-bl cells, 427299.c12.Q169K: > 50 µg/mL
[17]
  ID50 assayed in TZM-bl cells, 427299.c12.H81L: > 50 µg/mL
[18]
  ID50 assayed in TZM-bl cells, 427299.c12.KL.Q169K/I181L: > 50 µg/mL
[19]
  ID50 assayed in TZM-bl cells, CM244NW.4.K169Q: > 50 µg/mL
[20]
  ID50 assayed in TZM-bl cells, CM244NW.6.I181L: > 50 µg/mL
[21]
  EC50 (read off the curve): ~0.4 µg/mL

B3: PG9 reverted unmutated ancestor antibody (antibody, V domains shown)
VH: QVQLVESGGGVVQPGRSLRLSCAASGFTFSSYGMHWVRQAPGKGLEWVAVISYDGSNKYYADSVKGRFTISRDNSKNTLYLQMNSLRAEDTAVYYCAREAGGPDYRNGYNYYDFWSGYYNYYYMDVWGKGTTVTVSS
VL: QSALTQPASVSGSPGQSITISCTGTSSDVGSYNLVSWYQQHPGKAPKLMIYEVSKRPSGVSNRFSGSKSGNTASLTISGLQAEDEADYYCCSLTSTRRWVFGGGTKLTVL
notes: also called PG9 RUA; PG9_RUA
[21]
  binding result: no binding (tested: 100 ug/ml)

B4: PG16 reverted unmutated ancestor antibody (antibody, V domains shown)
VH: B3 VH with D104I, Y105W, R106H, N107D, G108D, Y109V, N110K, W115N, S116D, N120Y
VL: B3 VL with S95D, T96R, R97S, R98H, W99R, V100I
notes: also called PG16 RUA; PG16_RUA
[21]
  binding result: no binding (tested: 100 ug/ml)

Source: patent publication US9988424 (DUKE UNIVERSITY, dated 2018)
